Read-outs that look alike come from different tables or passages of the source.
Columns and labels:
[1] = target: T1, recombinant tau protein (full-length) (human, UniProt P10636 1-441); test: SPR (Biacore)
[2] = target: T1, recombinant tau protein (full-length); test: SPR (Biacore); remark: listed apart in the source

T1 sequence (P10636 other isoform, or with tags, fused parts or gaps): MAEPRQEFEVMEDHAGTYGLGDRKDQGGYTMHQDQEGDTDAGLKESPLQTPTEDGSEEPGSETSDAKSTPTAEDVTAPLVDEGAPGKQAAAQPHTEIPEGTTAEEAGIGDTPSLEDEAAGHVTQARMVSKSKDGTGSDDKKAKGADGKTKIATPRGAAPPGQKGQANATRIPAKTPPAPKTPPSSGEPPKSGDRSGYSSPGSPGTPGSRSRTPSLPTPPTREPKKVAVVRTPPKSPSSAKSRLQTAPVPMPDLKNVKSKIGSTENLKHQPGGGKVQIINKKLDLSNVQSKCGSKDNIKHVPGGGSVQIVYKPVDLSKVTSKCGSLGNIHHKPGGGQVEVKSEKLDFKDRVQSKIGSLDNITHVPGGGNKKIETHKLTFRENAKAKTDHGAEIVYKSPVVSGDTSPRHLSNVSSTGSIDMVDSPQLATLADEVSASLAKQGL

B1: Armanezumab (antibody, V domains shown)
VH: QVQLVQSGAEVKKPGASVKVSCKASGYTFTNHWMHWVRQAPGQGLEWMGAIDPGNSDTSYNQKFKGRVTMTRDTSTSTVYMELSSLRSEDTAVYYCARRDFFGGEYAVDYWGQGTLVTVSS
VL: DIVMTQSPLSLPVTPGEPASISCRSSQSLVHSNGNTYLHWYLQKPGQSPQLLIYKVSNRFSGVPDRFSGSGSGTDFTLKISRVEAEDVGVYYCSQSTHVPWTFGQGTKVEIKR
Question: For B1, which Kd [1] is on record?
Answer: The Kd was 48 nM.

B2: 1C9 chimeric humanized antibody (antibody, V domains shown)
VH: EVQLQQSGTVLARPGASVKMSCKTSGYTFTNHWMHWVKQRPGQGLEWIGAIDPGNSDTSYNQKFKGQAKLTAVTSASTAFMELSSLTNEDSAVYYCTRRDFFGGEYAVDYWGQGTSVTVSS
VL: DVVMTQTPLSLPVSLGDQASISCRSSQSLVHSNGNTYLHWYLQKPGQSPKLLIYKVSNRFSGVPDRFSGSGSGTDFTLKISRVEAEDLGVYFCSQSTHVPWTFGGGTKLEIK
Question: For B2, which Kd [2] is on record?
Answer: Its Kd is 3.91 nM.

B3: mouse monoclonal antibody 1C9 (antibody, V domains shown)
VH: B2 VH
VL: B2 VL
Question: Which results are given for B3?
Answer: Kd [2]: 3.39 nM; Kd [1]: 9.51 nM
